# Source: the supplement of paper PMC10724198
# ± gives the standard deviation of the averaged measurements.
# Test system: Saccharomyces cerevisiae
# Experiment: protein stability index of tFT-peptide fusion (C-terminal peptide) (PSI (0-1 scale)); higher = more stable (slower turnover)
# Conditions: genetic background: wild type; temperature: 30 C
# Method: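 Multiplexed protein stability (MPS) profiling in S. cerevisiae. Random 12-aa peptides (tFT-X12 library) are fused to the C-terminus of a sfGFP-mCherry tandem fluorescent timer, after mCherry and a GGGS linker. Cells are FACS-sorted into 8 mCherry/sfGFP bins and deep-sequenced. The protein stability index (PSI) is the read-weighted bin average, scaled from 0 (unstable) to 1 (stable). Only peptides with >10 reads are reported; cells were grown at 30 °C in SC-His with glucose.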
# 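Also: PSI is a weighted mean of sequencing reads over stability bins, variants kept only with over 10 reads, mCherry proximal and sfGFP distal, peptide attached via GGGS linker.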
row,Sequence,protein stability index
1,FSLPFLFCRPLS,0.6279 ± 0.0042
2,FSLPSRAPLPRF,0.735 ± 0.13
3,FSLSLACPPPHS,0.679 ± 0.19
4,FSLSRWFDEIAL,0.6438 ± 0.00075
5,FSLWPVRFVVDR,0.679 ± 0.041
6,FSNLVSAHFGLL,0.666 ± 0.042
7,FSPTPSRLSCDR,0.728 ± 0.027
8,FSPVSSFTLTLS,0.701 ± 0.11
9,FSRFWVSGGVVC,0.599 ± 0.0082
10,FSSPSFRSSLLL,0.679 ± 0.015
11,FSSTSAPPRSAP,0.621 ± 0.0078
12,FTARAGRLQSVF,0.627 ± 0.0097
13,FTCSAIIHVCGL,0.571 ± 0.035
14,FTISALSSTPRP,0.669 ± 0.042
15,FTLYLASVHFTR,0.56 ± 0.044
16,FTVRSPSCISAE,0.631 ± 0.017
17,FVALWVGCCWLG,0.542 ± 0.011
18,FVAPPLCMPLSR,0.704 ± 0.04
19,FVCRRDIMSGIF,0.6565 ± 0.0052
20,FVDWGLFAFGCL,0.796 ± 0.062
21,FVFGVCGGGGIG,0.671 ± 0.11
22,FVGAYGRLCCMS,0.69 ± 0.031
23,FVGGNEGSYWAS,0.751 ± 0.035
24,FVGRWSSRSRGH,0.768 ± 0.022
25,FVILTPFYLTFH,0.51 ± 0.033
26,FVIWGCGVRSWC,0.618 ± 0.033

row,Sequence,protein stability index
1,FVKRFSNGGVKT,0.775 ± 0.027
2,FVLATGVLLQQG,0.623 ± 0.024
3,FVLWFTSSGCSN,0.7598 ± 0.0039
4,FVPMDFILKFSR,0.699 ± 0.033
5,FVPPPVVPPFPL,0.716 ± 0.017
6,FVQEQGAKNNRH,0.746 ± 0.015
7,FVRAVLRLSSVF,0.645 ± 0.052
8,FVRCLFSSGCFF,0.728 ± 0.013
9,FVRGGWAVMLGG,0.58 ± 0.049
10,FVSSSVFFVFSF,0.627 ± 0.058
11,FVSWNLPLAFAF,0.499 ± 0.017
12,FVVVVVGGGWGG,0.516 ± 0.0068
13,FVWRVGGVRRGV,0.758 ± 0.09
14,FWGGRGGVGLAV,0.601 ± 0.1
15,FWRPIPQSPLPQ,0.7203 ± 0.002
16,FYGFHPLALPRP,0.725 ± 0.035
17,FYKKKIRRGVNV,0.661 ± 0.038
18,FYMCYFSCSRSL,0.667 ± 0.0086
19,FYVCVIQNMYML,0.579 ± 0.043
20,GAAIRVNRCGEG,0.64136 ± 0.00011
21,GAAPRWSGDRRW,0.71 ± 0.06
22,GAASHLERGQVP,0.634 ± 0.089
23,GAATKRKYTINT,0.665 ± 0.013
24,GACFLGGRLCGR,0.686 ± 0.024
25,GACILARGVRRR,0.656 ± 0.014
26,GACPAFPYSVGR,0.595 ± 0.018

row,Sequence,protein stability index
1,GAFLGSPWAAAS,0.731 ± 0.04
2,GAFRLGSIVGVP,0.735 ± 0.032
3,GAGAQRGCRSGG,0.6878 ± 0.0034
4,GAGGVGVTSGGK,0.668 ± 0.056
5,GAGVSELCGAGW,0.713 ± 0.11
6,GAHVAVFRQRGR,0.678 ± 0.083
7,GALYAGWRGPTC,0.669 ± 0.031
8,GAPAWMLLYSAS,0.723 ± 0.029
9,GAPKRLSISLSS,0.681 ± 0.019
10,GAPPPPPARGDL,0.764 ± 0.03
11,GARCHSKVTNAS,0.681 ± 0.036
12,GARGCSATGPPG,0.61 ± 0.02
13,GARGWTVWVAGL,0.632 ± 0.049
14,GARPRSGVRGGT,0.723 ± 0.022
15,GAVGGGSAADPE,0.667 ± 0.11
16,GAVGLARVSASN,0.653 ± 0.028
17,GAVLELCRADGG,0.651 ± 0.0082
18,GAVTWGGAGVGV,0.694 ± 0.022
19,GAWCSTGENDTA,0.677 ± 0.059
20,GCAVLGCLVLSA,0.655 ± 0.088
21,GCEVRTFMNSSG,0.697 ± 0.016
22,GCGDIFAEQLLL,0.7227 ± 0.0041
23,GCGGRTAAWGGG,0.655 ± 0.024
24,GCGRLWAGIGRR,0.678 ± 0.023
25,GCGSGGLGGWRW,0.746 ± 0.18
26,GCGVWRVLRVLR,0.642 ± 0.027

row,Sequence,protein stability index
1,GCPGGGRPGPRA,0.7052 ± 0.0064
2,GCRGRCVMPVCG,0.634 ± 0.051
3,GCRLFGLMFFDA,0.682 ± 0.063
4,GCRPFLLKSQTF,0.777 ± 0.11
5,GCRSFRNYKIGV,0.641 ± 0.018
6,GCRSYRVFSGMI,0.727 ± 0.12
7,GCVDRSSHNALC,0.632 ± 0.037
8,GCVVSIICGGRA,0.5639 ± 0.0013
9,GCWGRVLCGGSV,0.695 ± 0.026
10,GDCYLCSACEWW,0.753 ± 0.016
11,GDDCQYLVVPVR,0.701 ± 0.052
12,GDDRGTSKCCLT,0.702 ± 0.068
13,GDIRLTGLSIVS,0.638 ± 0.031
14,GDSGVWGPMGLW,0.732 ± 0.033
15,GDSSSCSSYVYL,0.651 ± 0.026
16,GDSVNSRALALS,0.732 ± 0.072
17,GDWIYRMDRILI,0.816 ± 0.035
18,GDWLVVRLVPSK,0.728 ± 0.013
19,GDWSYIVGIKYY,0.626 ± 0.0078
20,GEALVWGHGRLS,0.741 ± 0.041
21,GEGALGLRENLQ,0.665 ± 0.021
22,GEGEAVREMRGV,0.645 ± 0.025
23,GEGLGGGRGRRW,0.653 ± 0.026
24,GEGRGDKGHGWT,0.706 ± 0.19
25,GELCGHSRALHG,0.676 ± 0.071
26,GEPGQTSGREKT,0.641 ± 0.014

row,Sequence,protein stability index
1,GEPGRLNSSLFA,0.678 ± 0.051
2,GERGTRAERAGA,0.682 ± 0.032
3,GERLVGGWHIWN,0.706 ± 0.015
4,GESPSTIRSVYS,0.609 ± 0.038
5,GESWGGVGDVRR,0.762 ± 0.028
6,GETVGCARLRLS,0.566 ± 0.023
7,GEVGAVVGESFV,0.622 ± 0.071
8,GEVVGRCGAWVC,0.611 ± 0.033
9,GEVVRGGEWGLD,0.686 ± 0.057
10,GFAAPSRPACLP,0.696 ± 0.017
11,GFACRSGSFWST,0.848 ± 0.15
12,GFFRGMLEGINA,0.726 ± 0.073
13,GFGEFVLSSGWG,0.743 ± 0.018
14,GFGRGRRGLEEN,0.695 ± 0.024
15,GFKDRCKDEKSL,0.713 ± 0.11
16,GFLGCGSGCGWG,0.744 ± 0.057
17,GFMRGVREKSSR,0.701 ± 0.0073
18,GFPILSGLAVVR,0.6578 ± 0.0055
19,GFPPSPPPPSPL,0.741 ± 0.085
20,GFRGILFPVGRS,0.736 ± 0.03
21,GFSCLALFCRVD,0.587 ± 0.019
22,GFVCRRFRFGCI,0.634 ± 0.037
23,GFYEVLRNMFVI,0.589 ± 0.035
24,GGAAGGGRGGDG,0.62 ± 0.069
25,GGAGLGSRSSAL,0.743 ± 0.008
26,GGAGSVAGVWAV,0.673 ± 0.069

row,Sequence,protein stability index
1,GGASGGAGEGVG,0.623 ± 0.063
2,GGCFGGVGVGSG,0.7122 ± 0.0045
3,GGCGGVGGACVV,0.738 ± 0.086
4,GGCGGVGGWGVA,0.712 ± 0.066
5,GGCKSLYFEWGR,0.734 ± 0.01
6,GGCRSVGWGREG,0.676 ± 0.029
7,GGCTVLRASIFA,0.597 ± 0.0063
8,GGCVGVLGGWGF,0.6827 ± 0.0032
9,GGEGAAWAGGVG,0.558 ± 0.028
10,GGEGMTCPGGGA,0.693 ± 0.039
11,GGFARGRDGWQL,0.712 ± 0.0013
12,GGFDDIYVPIFV,0.694 ± 0.012
13,GGFFPRISSLTV,0.707 ± 0.054
14,GGFGEFTWAEAA,0.768 ± 0.0087
15,GGFGVLGLGVVG,0.6963 ± 0.0058
16,GGFPVGLVSGFC,0.641 ± 0.032
17,GGFVVVGGVVGV,0.72 ± 0.013
18,GGFWLGVGSRVG,0.711 ± 0.06
19,GGGAEGGVRGGG,0.664 ± 0.027
20,GGGAGGGSDRVV,0.736 ± 0.0096
21,GGGAGRGGVVVR,0.685 ± 0.023
22,GGGAGVTLSADG,0.682 ± 0.059
23,GGGARCGWGGRM,0.7 ± 0.011
24,GGGARREGAGRG,0.6752 ± 0.0064
25,GGGCLRGFWCVW,0.724 ± 0.046
